Results as given in the RNAGym collection of RNA variant scans (doi:10.1073/pnas.2313332121).
This sample holds only a part of the variants without activity.

B1: TPR 5TU (parent)
chain: GGAUCUUCUCGAUCUAACAAAAAAGACAAAUCUGCCACAAAGCUUGAGAGCAUCUUCGGAUGCAGAGGCGGCAGCCUUCGGUGGCGCGAUAGCGCCAACGUUCUCAACUAUGACACGCAAAACGCGUGCUCCGUUGAAUGGAGUUUAUCAUG

Variants of: B1
Test: polymerase ribozyme fitness, log enrichment relative to wild type (log ratio); higher = more active; in vitro selection for triplet polymerase activity
Outline: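 Fitness measures genotype enrichment against wild-type enrichment on a logarithmic scale, with inverse-variance-weighted averaging of replicates. The logarithm is base 2, and genotypes were kept only with ≥10 input reads and ≥1 read per output in Illumina sequencing. The sequenced libraries came from one triplicate in vitro selection round, including frozen incubation at −7 °C, of PCR-built, transcribed mutant libraries of each subunit of a heterodimeric triplet polymerase ribozyme.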

Variant | polymerase ribozyme fitness (log ratio)
GGAUCUUCUCGAUCUAACAAAAAAGACAAAUCUGCCACCAAGCUUGAGAGCGUCUUCGGAUGCAGAGGCAGCAGCCUUCGGUGGCGCGAUAGCGCCAAGAUUCUCAACUAUGACACGCAAAACGCGUGCUCCGUUGAAUGGAGAUUAUCAUG | ≤ -4.2
GGAUCUUCUCGAUCUAACAAAAAAGACAAAUCUGCCAUAAAGCUUGAGAGCAUCUUCGGAGGCAGAGGCGGCAGCCUUCGGUGGCGCGAUAUCGCCAACGUUCUCAACUAUGACAGGCAAAACGCGUGCUCCGUUGAAUAGAGCUUAUCAUG | ≤ -4.2
GGAUCUUCUCGAUCUAACAAAAAAGACAAAUCUGCCACCCAGCUUGAGAGCAUCUUCGGAUGCAGAGGCCGCAGCCUUCGGUGGCGCCAUAGCGCCAACGUUCUCAACCAUGACACGCAAAACGCGUGCUCCGUUGAAUGGAGUUUAUCAUG | ≤ -4.2
GGAUCUUCUCGAUCUAACAAAAAAGACAAAUCUGCCACCAAGCUUGAGAGCAUGUUCGGAUGCAGAGGCGGCAGCCUUCGGUGGCGCGAUAGAGCCAACGUUCUCAACUAUGACACGCAAAACGCGUGCUCCGUUGAAUGGAGUUUAUCAUG | ≤ -4.2
GGAUCUUCUCGAUCUAACAAAAAAGACAAAUCUGCCAUAAAGCUUGAGAGCAUCGUCGGAUGCAGAGGCGGCAGCCUUCGGUGCCGCGAUAGCGCCAUCGUUCUCAACUAUGACACGCAAAACGCGUGCUCCGUUGAAUGGAGUUUAUCAUG | -1
GGAUCUUCUCGAUCUAACAAAAAAGACAAAUCUGCCACCAAGCUUGAGAGCAUCUUCGGAUGCCGAGGCGGCAGCCUUCGGUGGCGCGAUAGUGCCAACGUUCUCAACUAUGACACGCAAAACGCGUGCUCCGUUGAAUGGAGUUUAUCAUG | ≤ -4.2
GGAUCUUCUCGAUCUAACAAAAAAGACAAAUCUGCCACCAAGCUUGAGAGCAUCUUCGGAUGCAGAGGCGGCAGUCUUCGGUAGCGCGAUAGCGCCAACGUUCUCAACUAUGACACGCAAAACGCGUGCUCCGUUGAAUGGAGUUUAUCAUG | ≤ -4.2
GGAUCUUCUCGAUCUAACAAAAAAGACAAAUCUGCCACCAAGCUUGAGAGCAUCUUCGGAUGCAGAGGCGGCAGCCUUGGGUGGCGCGAUAACGCCAACGUUCUCAACUAUGACACGCAAAACGCGUGCUCCGUUGAAUGGAGUUUAUCAUG | -3.32
GGAUCUUCUCGAUCUAACAAAAAAGACAAAUCUGCCAUAAAGCUUGAGAGCAUCUACGGUUGCAGAGGCGGCAGCCUUCGGUGGCGCGAUAGCGACAACGUUCUCAACUAUGACACGCAAAACGCGUGCUCCGUUGAAUGGAGUUUAUCAUG | -1.13
GGAUCUUCUCGAUCUAACAAAAAAGACAAAUCUGCCAUAAAGCUUGAGAGCAUCUUCGGAUGCAGAGGCGGCAGCCUUCGGUGGCGCGAUAGCGCCAACGUUCUCAACUAUGACACGCAAAACGCGUGCUCCGUUGAAUGGAGUUUACCAUG | -1.36
GGAUCUUCUCGAUCUAACAAAAAAGACAAAUCUGCCACCAAGCUUGAGAGCAUCUUCGGAUGCAGAGGCGGCAGCCUUCGGUGGCGCGAUUACGCCAACGUUCUCAACUAUGACACGCAAAACGCGUGCUCCGUUGAAGGGAGUUUAUCAUG | ≤ -4.2
GGAUCUUCUCGAUCUAACAAAAAAGACAAAUCUGCCACCAAGCUUGAGAGCGUCUUCGGAUGCAGAGGCGGCAGCCUUCGGUGGCGCGAUAGCGCCAACGUUCUCAACUAUGACACGCAAAACGCGUGCUCCGUUGAAUGGAGUUUAUCAUG | -2.32
GGAUCUUCUCGAUCUAACAAAAAAGACAAAUCUGCCACCCCCCUUUAGAGCAUCUUCGCAUGCAGAGGCGGCAGCCUUCGGUGGCGAGAGAGCGCCAACGUUCUCAACUAUGACACGCAAAACGCGGGCUCCGUUGAAUGGAGUUUAUCAUU | ≤ -4.2
GGAUCUUCUCGAUCUAACAAAAAAGACAAAUCUGCCACCAAGCUUGCGAGCAUCUUCGGAUACAGAGGCGGCAGCCUUCGGUGGUGCGAUAGCGCCAUCGUUCUCAACUAUGACACGCAAAACGCGUGCUCCGAUGAAUGGAGUUUAUCAUG | ≤ -4.2
GGAUCUUCUCGAUCUAACAAAAAAGACAAAUCUGCCACCCAGCUUGAGCGCAUCUUCGGAUGCAGAGGCGGCAGCCUUCGGUGGCGCGAUAGCGCCAACGUUCUCAACUAUGACACGCAAAACGCGUGCUCCGUUGAAUGGAGUUUAUCAUG | ≤ -4.2
GGAUCUUCUCGAUCUAACAAAAAAGACAAAUCUGCCACCAAGCUUGAGAGCAUCUUCGGAUGCAGAGGCGGCAGCCUUCGGUGGCGCGCUAGCGCCAACGUUCUCAACUAUGACACGCUGAACGCGUGCACCGUUGAAUGGAGUUUAUCAUG | ≤ -4.2
GGAUCUUCUCGAUCUAACAAAAAAGACAAAUCUGCCACCAAGCUUGAGAGUAUCUUCGGAUGCAGAGGCGGCAGCCUUCGGUGGCGCGAUAGCGCCAACGUUCUUAACUAUGACACGUAAAACGCGUGCUCCGUUGAAUGGAGUUUAUCAUG | -3.78
GGAUCUUCUCGAUCUAACAAAAAAGACAAAUCUGCCACCACGCUUGAGAGCAUCUUCGGAUGCAGAGGCGGCAGCCUUCGGUGGCGCGAUAGCGCCAACGUUCUCAACUAUGACGCGCAAAACACGUGCUCCGUUGAAUGGAGUUUAUCAUG | -3.47
GGAUCUUCUCGAUCUAACAAAAAAGACAAAUCUGCCACCAAGCUUGAGAGCAUCUUCGGAUGCAGAGGCGGCAGCCUUCGGUGGCGCGUUAGCGCCAACGUUCUCAACUAUGACAUGCAAAACGCGUGCUCCGUUGAAUGGAGUUUAUCAUG | -2.02

Variant | polymerase ribozyme fitness (log ratio)
GGAUCUUCUCGAUCUAACAAAAAAGACAAAUCUGCCACCACGCUUGAGAGCAUCUUCGGAUGCAGAGGCGGCAGCCUUCGGUGGCUCGAUAGCGCCAACGUUCUCAACUAUGACACGCAAAACGCGUGCUCCGUUGAAGGGAGUUUAUCAUG | ≤ -4.2
GGAUCUUCUCGAUCUAACAAAAAAGACAAAUCUGCCACCAAGCUUGAGAGCAUCUUCGGAUGCAGAGGCGGCAGCUUUCGGUUGCGCGAUAGCGCCAACGUUCCCAACUAUGACACGCAAAACGCGUGCUCCGUUGAAUGGAGUUUAUCAUG | ≤ -4.2
GGAUCUUCUCGAUCUAACAAAAAAGACAAAUCUGCCACCAAGCUUGAGAGCAUAUUCGGAUGCACAGGCGGCAGCCUUCGGUGGCGCGAUAGAGCCAACGUUCUCAACUAUGACACGCAAAACUCGUGCUCCGUUGACUGGAGUUUAUCAUG | ≤ -4.2
GGAUCUUCUCGAUCUAACAAAAAAGACAAAUCUGCCAUAAAGCUUGAGAGCAUCUUCGGAUGCAGAGGCGGCAGCCUCCGGUGGCGCGAUAGCGUCAACGUUCUCAACUAUGACACGCAAAACGCGUGCUCCGUUGAAUGGAGUUUAUCAUG | -0.556
GGAUCUUCUCGAUCUAACAAAAAAGACAAAUCUGCCACCAAGCUUGUGAGCAUCUUCGGAUGCAGAGGCGGCAGCCUUCGGUGGCGCGAUAGCGCCAACGUUCUCAACUAUGACACGCAAAACGCGUGCUCCGUUGAAUGGAGUUUAUCAUG | -2.53
GGAUCUUCUCGAUCUAACAAAAAAGACAAAUCUGCCACCAAGCUUGAGAGCAUCUUAGGAUGCAGAGGCGGCAGCCUUCGGUGGCACGAUAGCGCCAACGUUCUCAACUAUGACACGCAAAACGCGUGCCCCGUUGAAUGGAGUUUAUCAUG | -2.93
GGAUCUUCUCGAUCUAACAAAAAAGACAAAUCUGCCAUAAAGCUUGAGAGCAUCUUCGGACGCAGAGGCGGCAGCCUUCGGUGGCGCGAUAGCGCCAACGUUCUCAACUAUGACACGCAAAACGCGUGCUCCGUUGAAUGGAGUAUAUCAUG | -2.49
GGAUCUUCUCGAUCUAACAAAAAAGACAAAUCUGCCACCAAGCUUGAGAGCAUCUUCGGAUGCAGAGGCGGCAGCCUUCGGUGGCGCGAUUGCACCAACGUUCUCAACUAUGACACGCAAAACGCGUGCUCCCUUGAAUGGUGUAUAACAUG | ≤ -4.2
GGAUCUUCUCGAUCUAACAAAAAAGACAAAUCUGCCAUAAAGCUUGAGAGCAUCGUCGGAUGCAGAGGCGGCAGCCUUCGGUUGCGCGAUAGCGCCAACGUUCUCAACUAUGACACGCAAAACGCGUGCUCCGUCGAAUGGAGUUUAUCAUG | -1.98
GGAUCUUCUCGAUCUAACAAAAAAGACAAAUCUGCCACCAAGCUUGAGAGCAUCUUCGGAUGAUGAGGCGGCAGCCUUCGGUGACGCGAUAGGGCCAACGUUCUCAACUAUGACAGGCAAAACGCGUGCUCCGUUGAAUGGAGUUUAUCAUG | ≤ -4.2
GGAUCUUCUCGAUCUAACAAAAAAGACAAAUCUGCCAUAAAGCUUGAGAGCAUCUACGGAUGCAGAGGCCGCAGCCUUCGGUGGCGCGAUUGCGCCAACGUUCACACCUAUGACACGCAAAACGCGUGCUCCGUUGAAUGGAGUAUAUCAUG | ≤ -4.2
GGAUCUUCUCGAUCUAACAAAAAAGACAAAUCUGCCACCAAGCUUGAGAGCGUCUUCGGAUGCAGAGGCGGCAGCCUUCGGUGGCGCGAUAGCGCCAACGUUCUCAACUAUGACACGCAAAAGGCGUGCUCCGUUGAAUGGAGUUUAUCAUG | -2.84
GGAUCUUCUCGAUCUAACAAAAAAGACAAAUCUGCCAUAAAGCUUGAGAGCAUCUUCGGAUGCAGAGGCGGCAGCCUUCGGUGGCGCGAUAGCGCCAACGUUCUCAACUAUGACACGCAAAACGCGUGCUCCGUUGAAUGGAGUAUAUCAUG | 0.631
GGAUCUUCUCGAUCUAACAAAAAAGACAAAUCUGCCAUAAAGCUUGAGAGCAUCUUCGGAUGCAGAGGCGGCAGCCUUCGGCGGUGCGAGAGCGCCAAUGUUCUUAAGUAUGACACGCAGAACGCGUGCUCCGUUGAAUGGAGUUUAUCAUG | ≤ -4.2
GGAUCUUCUCGAUCUAACAAAAAAGACAAAUCUGCCAUAAAGCUUGAGAGCAUCUUCGGAAGCAGAGGCGGCAGCCUUCGGUGGCGCGAUAGCGCCAACGUUCUCCACUAUGACACGCAAAACGCGUGCUCCGUUGAAUGAAGUUUAUCAUG | -3.01
GGAUCUUCUCGAUCUAACAAAAAAGACAAAUCUGCCAUAAAGCUUGAGAGCAUCUACGGAUGCAGAGGCGGCAGCCUUCGGUGGCGCGAUAGCGCCAACGUUCUCAACUAUGACACGCAAAACGCGUGCUCCGUUGAAUGGAGUUUCUCAUG | -0.21
GGAUCUUCUCGAUCUAACAAAAAAGACAAAUCUGCCACCAAGCUUGAGAGCAUCUUCGGGUGCAGAGGCGGCAGCCUUCGGUGGCGUGAUAGCGCCAACGUUCUCAACUAUGACACGCAAAACGCGUGCUCCGUUGAAUGGAGUUUCUCAUG | -3.78
GGAUCUUCUCGAUCUAACAAAAAAGACAAAUCUGCCAUAAAGCUUGAGAGCAUCUUCGGAUGCAGAGGCGGCAGCCUUCGGUGGCGCGAGAGCGACAACGUUCUCAACUAUGACACGCAAAACGCGUGCUCCGUUGAAUGGAGUUUAUCAUG | ≤ -4.2
GGAUCUUCUCGAUCUAACAAAAAAGACAAAUCUGCCACCAAGCUUGAGAGCAUAUUCGGAUGCAGAGGCGGCAGCCUUCGAUGGCGCGAUAGCGCCAACGUUCUCAACUAUGACACGCAAAACGCGUGCUCCGUUGAAUGGAGUUUAUCAUG | -3.05
